We go through nine molecules from US20090098112A1 (Genentech, published 2009).

Assay [1] deals with T1, recombinant human integrin α5β1 (R&D) (human, UniProt P08648 42-995; P05556 21-728).
T1 construct: Bought recombinant heterodimer (R&D); It was used coated on plates and in solution in the phage ELISA, and as analyte or immobilized in BIAcore; also called alpha5beta1; a5b1
Kind of assay: phage competition ELISA IC50 of the Fab-phage against human integrin α5β1, relative to parental h7H5.v1; down arrow = loss, up arrow = improvement of binding affinity. As for the experimental part:
Substitutions with other resides at various positions was achieved by Kunkel mutagenesis using a separate oligonucleotide for each position. […] The IC50 values for binding affinity were determined by phage competition ELISA in FIG. 6. Two variants, h7H5.v2 and h7H5.v3 as indicated were selected to include glycine substitution at position 65 of CDR-H2, cloned into hIgG1 vector, and evaluated binding affinities using BIAcore instrument.
(§1) MAXISORP™ microtiter plates were coated with recombinant human integrin α5β1 (R&D) at 5 μg/ml in PBS overnight and then blocked with PBST buffer (0.5% BSA and 0.05% Tween 20 in PBS) for an hour at room temperature. Phage from culture supernatants were incubated with serially diluted human integrin α5β1 in PBST buffer in a tissue-culture microtiter plate for an hour, after which 80 μl of the mixture was transferred to the target-coated wells for 15 minutes to capture unbound phage. The plate was washed with PBT buffer (0.05% Tween 20 in PBS), and HRP-conjugated anti-M13 (Amersham Pharmacia Biotech) was added (1:5000 in PBST buffer) for 40 minutes. The plate was washed with PBT buffer and developed by adding tetramethylbenzidine substrate (Kirkegaard and Perry Laboratories, Gaithersburg, Md.). The absorbance at 450 nm was plotted as a function of target concentration in solution to determine phage IC₅₀.

Assay [2] addresses T1, recombinant human integrin α5β1 (R&D). Briefly: phage competition ELISA: Fab-phage incubated with serially diluted soluble human integrin α5β1, unbound phage captured on plate-coated integrin α5β1, anti-M13-HRP, A450. As for the experimental part: Mutation at each position was generated by Kunkel mutagenesis using a separate oligonucleotide. Phage competition ELISA was utilized for evaluating all of the variants. […] Binding affinities (IC50) against human integrin α5β1 was determined.
as §1

T1 sequence (P08648 42-995 limits assumed, chain 1 of 2): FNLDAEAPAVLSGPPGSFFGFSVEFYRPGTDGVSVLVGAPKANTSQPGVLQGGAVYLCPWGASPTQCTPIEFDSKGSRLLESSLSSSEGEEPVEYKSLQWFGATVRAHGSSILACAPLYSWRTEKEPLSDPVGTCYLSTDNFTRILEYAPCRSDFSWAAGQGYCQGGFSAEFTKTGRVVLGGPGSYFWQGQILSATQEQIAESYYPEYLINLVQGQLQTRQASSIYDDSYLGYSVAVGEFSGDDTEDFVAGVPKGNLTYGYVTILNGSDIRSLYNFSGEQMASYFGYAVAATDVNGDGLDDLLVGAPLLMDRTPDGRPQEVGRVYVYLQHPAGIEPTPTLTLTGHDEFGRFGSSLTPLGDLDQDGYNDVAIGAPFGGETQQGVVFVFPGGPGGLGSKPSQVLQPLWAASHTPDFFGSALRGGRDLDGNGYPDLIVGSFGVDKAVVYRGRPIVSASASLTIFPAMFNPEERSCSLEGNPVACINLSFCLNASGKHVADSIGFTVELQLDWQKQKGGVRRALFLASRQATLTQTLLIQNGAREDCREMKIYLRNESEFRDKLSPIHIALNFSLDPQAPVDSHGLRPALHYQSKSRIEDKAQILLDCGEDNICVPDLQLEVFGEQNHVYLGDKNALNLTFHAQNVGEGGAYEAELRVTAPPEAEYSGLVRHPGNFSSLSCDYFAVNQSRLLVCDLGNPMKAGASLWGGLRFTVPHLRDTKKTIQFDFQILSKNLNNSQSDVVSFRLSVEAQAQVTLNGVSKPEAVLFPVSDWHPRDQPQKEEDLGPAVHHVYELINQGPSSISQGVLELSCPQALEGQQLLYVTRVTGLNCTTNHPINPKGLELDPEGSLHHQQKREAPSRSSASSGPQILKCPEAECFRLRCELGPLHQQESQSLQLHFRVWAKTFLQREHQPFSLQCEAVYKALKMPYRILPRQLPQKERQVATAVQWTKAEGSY
T1 sequence (P05556 21-728 limits assumed, chain 2 of 2): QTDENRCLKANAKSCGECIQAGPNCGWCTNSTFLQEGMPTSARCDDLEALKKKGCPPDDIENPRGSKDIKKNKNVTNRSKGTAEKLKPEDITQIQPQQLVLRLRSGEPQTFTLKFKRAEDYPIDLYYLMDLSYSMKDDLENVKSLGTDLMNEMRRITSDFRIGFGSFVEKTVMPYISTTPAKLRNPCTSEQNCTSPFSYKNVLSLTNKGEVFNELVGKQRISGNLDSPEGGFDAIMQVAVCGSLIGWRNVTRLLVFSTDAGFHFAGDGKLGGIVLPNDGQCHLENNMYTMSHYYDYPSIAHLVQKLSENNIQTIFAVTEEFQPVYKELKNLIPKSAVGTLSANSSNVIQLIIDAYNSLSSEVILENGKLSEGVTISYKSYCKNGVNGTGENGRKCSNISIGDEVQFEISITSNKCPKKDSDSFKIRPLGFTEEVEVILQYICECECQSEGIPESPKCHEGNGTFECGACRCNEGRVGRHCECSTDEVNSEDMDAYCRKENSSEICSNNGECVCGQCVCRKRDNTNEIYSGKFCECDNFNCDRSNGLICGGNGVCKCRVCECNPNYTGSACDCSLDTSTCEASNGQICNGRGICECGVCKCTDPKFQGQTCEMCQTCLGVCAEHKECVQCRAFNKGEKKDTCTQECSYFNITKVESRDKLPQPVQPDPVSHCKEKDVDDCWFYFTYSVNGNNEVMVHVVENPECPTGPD

B1: CDR-H2:N54S (Fab, part only; not given: VH end, constant domains, phage fusion, V domains shown, not shown: another chain or arm of the molecule; a dimerising Fc or GST; large carriers)
VL: DIQMTQSPSSLSASVGDRVTITCKASQNVGSDVAWYQQKPGKAPKTLIYSTSYRYSGVPSRFSGSGSGTDFTLTISSLQPEDFATYYCQQYNSYPFTFGQGTKVEIK
VH: EVQLVESGGGLVQPGGSLRLSCAASGYTFTDYYLYWVRQAPGKGLEWIGGISPSSGGTTFNDNFENKATLSVDKSKNTAYLQMNSLRAEDTAVYYCTRDAYGDWYFDVWGQGT
Consider B1, for which the Relative Fold to h7H5.v1 in assay [1] came to 1 fold.

B2: HC:G49S (Fab, part only; not given: VH end, constant domains, phage fusion, V domains shown, not shown: another chain or arm of the molecule; large carriers)
VL: DIQMTQSPSSLSASVGDRVTITCKASQSVGSDVAWYQQKPGKAPKTLIYSTSYRYSGVPSRFSGSGSGTDFTLTISSLQPEDFATYYCQQYSSYPFTFGQGTKVEIK
VH: EVQLVESGGGLVQPGGSLRLSCAASGYTFTDYYLYWVRQAPGKGLEWISGISPSSGGTTFADAFEGKATLSVDKSKNTAYLQMNSLRAEDTAVYYCTRDAYGDWYFDVWGQGT
Turning to B2, the IC50 (read off the curve) in assay [2] was found to be 0.07 nM.

B3: CDR-H2:N62A (Fab, part only; not given: VH end, constant domains, phage fusion, V domains shown, not shown: another chain or arm of the molecule; a dimerising Fc or GST; large carriers)
VL: DIQMTQSPSSLSASVGDRVTITCKASQNVGSDVAWYQQKPGKAPKTLIYSTSYRYSGVPSRFSGSGSGTDFTLTISSLQPEDFATYYCQQYNSYPFTFGQGTKVEIK
VH: EVQLVESGGGLVQPGGSLRLSCAASGYTFTDYYLYWVRQAPGKGLEWIGGISPSNGGTTFNDAFENKATLSVDKSKNTAYLQMNSLRAEDTAVYYCTRDAYGDWYFDVWGQGT
For the molecule B3, the Relative Fold to h7H5.v1 in assay [1] came out at 1 fold.

B4: CDR-H2:N60A (Fab, part only; not given: VH end, constant domains, phage fusion, V domains shown, not shown: another chain or arm of the molecule; a dimerising Fc or GST; large carriers)
VL: DIQMTQSPSSLSASVGDRVTITCKASQNVGSDVAWYQQKPGKAPKTLIYSTSYRYSGVPSRFSGSGSGTDFTLTISSLQPEDFATYYCQQYNSYPFTFGQGTKVEIK
VH: EVQLVESGGGLVQPGGSLRLSCAASGYTFTDYYLYWVRQAPGKGLEWIGGISPSNGGTTFADNFENKATLSVDKSKNTAYLQMNSLRAEDTAVYYCTRDAYGDWYFDVWGQGT
Regarding B4, the Relative Fold to h7H5.v1 in assay [1] was 1.6 fold.

B5: h7H5.v1 (Fab, part only; not given: VH end, constant domains, phage fusion, V domains shown, not shown: another chain or arm of the molecule; large carriers)
VL: DIQMTQSPSSLSASVGDRVTITCKASQNVGSDVAWYQQKPGKAPKTLIYSTSYRYSGVPSRFSGSGSGTDFTLTISSLQPEDFATYYCQQYNSYPFTFGQGTKVEIK
VH: EVQLVESGGGLVQPGGSLRLSCAASGYTFTDYYLYWVRQAPGKGLEWIGGISPSNGGTTFNDNFENKATLSVDKSKNTAYLQMNSLRAEDTAVYYCTRDAYGDWYFDVWGQGT
B5: the IC50 (read off the curve) in assay [2] is 0.05 nM.

B6: N28S(L1)+N92S(L3)+N54S/N60A/N62A/N65S(H2) (Fab, part only; not given: VH end, constant domains, phage fusion, V domains shown, not shown: another chain or arm of the molecule; large carriers)
VL: DIQMTQSPSSLSASVGDRVTITCKASQSVGSDVAWYQQKPGKAPKTLIYSTSYRYSGVPSRFSGSGSGTDFTLTISSLQPEDFATYYCQQYSSYPFTFGQGTKVEIK
VH: EVQLVESGGGLVQPGGSLRLSCAASGYTFTDYYLYWVRQAPGKGLEWIGGISPSSGGTTFADAFESKATLSVDKSKNTAYLQMNSLRAEDTAVYYCTRDAYGDWYFDVWGQGT
As for B6, the IC50 (read off the curve) in assay [2] was determined as 0.04 nM.

B7: h7H5.v2 displayed on phage as a monovalent Fab (Fab, V domains shown)
VH: EVQLVESGGGLVQPGGSLRLSCAASGYTFTDYYLYWVRQAPGKGLEWIGGISPSSGGTTFADAFEGKATLSVDKSKNTAYLQMNSLRAEDTAVYYCTRDAYGDWYFDVWGQGT
VL: DIQMTQSPSSLSASVGDRVTITCKASQSVGSDVAWYQQKPGKAPKTLIYSTSYRYSGVPSRFSGSGSGTDFTLTISSLQPEDFATYYCQQYSSYPFTFGQGTKVEIKR
notes: also called humanized 7H5.v2; parental clone
Take B7: in assay [2], the “IC50 (read off the curve)” value is ~0.06 nM.

B8: CDR-H2:N60S (Fab, part only; not given: VH end, constant domains, phage fusion, V domains shown, not shown: another chain or arm of the molecule; a dimerising Fc or GST; large carriers)
VL: DIQMTQSPSSLSASVGDRVTITCKASQNVGSDVAWYQQKPGKAPKTLIYSTSYRYSGVPSRFSGSGSGTDFTLTISSLQPEDFATYYCQQYNSYPFTFGQGTKVEIK
VH: EVQLVESGGGLVQPGGSLRLSCAASGYTFTDYYLYWVRQAPGKGLEWIGGISPSNGGTTFSDNFENKATLSVDKSKNTAYLQMNSLRAEDTAVYYCTRDAYGDWYFDVWGQGT
B8: the Relative Fold to h7H5.v1 in assay [1] was determined as 2.5 fold.

B9: HC:A78L (Fab, part only; not given: VH end, constant domains, phage fusion, V domains shown, not shown: another chain or arm of the molecule; large carriers)
VL: DIQMTQSPSSLSASVGDRVTITCKASQSVGSDVAWYQQKPGKAPKTLIYSTSYRYSGVPSRFSGSGSGTDFTLTISSLQPEDFATYYCQQYSSYPFTFGQGTKVEIK
VH: EVQLVESGGGLVQPGGSLRLSCAASGYTFTDYYLYWVRQAPGKGLEWIGGISPSSGGTTFADAFEGKATLSVDKSKNTLYLQMNSLRAEDTAVYYCTRDAYGDWYFDVWGQGT
B9: in assay [2], the IC50 (read off the curve) was 0.09 nM.
